From IntAct's records for PubMed 15611164

B1: Ankyrin repeat-containing protein YAR1 (Saccharomyces cerevisiae), P46683 (parent)
chain: MGLHSEPLDQEDQDTIILDARAGDLDSLKDIFTTLVSPELLSTCKESESDSTALHMAAANGHIETVRYILETVSRANSAEDLKAFVNEVNKTGNTALHWASLNGKLDVVKLLCDEYEADPFIRNKFGHDAIFEAENSGKEEVETYFLKKYDVEPEDDEEDTQTEGKNSVQITKGTEIEQVTKEATEALREETEKLNINKD
partner: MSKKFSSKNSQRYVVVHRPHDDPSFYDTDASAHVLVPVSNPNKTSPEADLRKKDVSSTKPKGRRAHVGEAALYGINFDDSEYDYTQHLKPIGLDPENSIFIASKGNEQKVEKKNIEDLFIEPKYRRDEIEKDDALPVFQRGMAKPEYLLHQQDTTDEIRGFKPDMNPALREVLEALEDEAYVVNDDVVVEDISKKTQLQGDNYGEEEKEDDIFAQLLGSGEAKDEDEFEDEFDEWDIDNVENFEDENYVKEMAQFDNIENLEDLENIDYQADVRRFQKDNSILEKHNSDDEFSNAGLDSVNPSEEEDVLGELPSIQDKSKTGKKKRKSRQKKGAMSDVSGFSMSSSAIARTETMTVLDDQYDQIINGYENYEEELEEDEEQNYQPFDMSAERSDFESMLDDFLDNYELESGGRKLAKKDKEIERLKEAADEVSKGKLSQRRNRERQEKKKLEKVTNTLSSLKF

Variants of: B1
Settings: with ltv1_yeast LTV1, P34078

Variant	effect of a mutation on the interaction
K91A	decreasing interaction
K125A	decreasing interaction
